Changes are numbered by the printed parent chain.
What was measured:
Assay in all cases: cell-based or functional assay
[1] = target: T1, human IL-18 receptor complex (IL-18Rα/β) (human, UniProt Q13478 19-541; O95256 20-599)
T1 sequence (looked up) 1: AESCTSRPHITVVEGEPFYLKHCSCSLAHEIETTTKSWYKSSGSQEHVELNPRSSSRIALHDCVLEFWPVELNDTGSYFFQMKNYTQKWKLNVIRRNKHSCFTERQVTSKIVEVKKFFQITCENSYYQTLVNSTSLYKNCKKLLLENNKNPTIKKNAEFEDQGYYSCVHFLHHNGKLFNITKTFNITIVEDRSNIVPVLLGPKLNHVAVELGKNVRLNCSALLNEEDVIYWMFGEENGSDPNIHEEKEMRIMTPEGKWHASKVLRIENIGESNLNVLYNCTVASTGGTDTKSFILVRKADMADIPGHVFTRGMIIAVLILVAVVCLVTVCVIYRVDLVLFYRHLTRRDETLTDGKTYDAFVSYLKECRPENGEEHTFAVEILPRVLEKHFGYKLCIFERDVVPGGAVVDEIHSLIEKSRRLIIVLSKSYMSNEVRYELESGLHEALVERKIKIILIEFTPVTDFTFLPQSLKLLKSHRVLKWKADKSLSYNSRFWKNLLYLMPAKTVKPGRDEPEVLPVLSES
T1 sequence (looked up) 2: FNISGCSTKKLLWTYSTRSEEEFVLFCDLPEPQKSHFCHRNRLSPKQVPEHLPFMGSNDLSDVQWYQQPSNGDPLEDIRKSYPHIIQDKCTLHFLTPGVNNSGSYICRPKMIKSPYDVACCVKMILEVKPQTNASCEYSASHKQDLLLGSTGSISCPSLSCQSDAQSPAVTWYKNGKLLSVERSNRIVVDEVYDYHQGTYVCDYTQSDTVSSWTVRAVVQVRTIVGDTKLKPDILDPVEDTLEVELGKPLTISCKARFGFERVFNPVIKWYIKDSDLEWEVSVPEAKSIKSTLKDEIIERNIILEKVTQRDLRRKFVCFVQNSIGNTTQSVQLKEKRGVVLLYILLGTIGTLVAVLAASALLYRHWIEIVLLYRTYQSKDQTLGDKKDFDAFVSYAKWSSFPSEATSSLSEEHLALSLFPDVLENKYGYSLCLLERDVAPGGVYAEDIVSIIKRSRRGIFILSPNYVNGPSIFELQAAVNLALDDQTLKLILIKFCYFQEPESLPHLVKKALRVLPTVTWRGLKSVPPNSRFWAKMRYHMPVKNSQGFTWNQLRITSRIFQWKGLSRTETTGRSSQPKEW

[2] = target: T1, human IL-18 receptor complex (IL-18Rα/β); remark: listed apart in the source
[3] = target: T2, human recombinant IL-18-BP (human, UniProt O95998 31-194)
T2 sequence (looked up): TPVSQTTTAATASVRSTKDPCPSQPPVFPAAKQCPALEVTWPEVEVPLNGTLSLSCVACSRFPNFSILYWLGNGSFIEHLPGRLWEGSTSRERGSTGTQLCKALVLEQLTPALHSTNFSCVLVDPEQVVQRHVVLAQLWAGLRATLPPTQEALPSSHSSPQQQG

[4] = target: T1, human IL-18 receptor complex (IL-18Rα/β); remark: listed apart in the source

B1: FUSE-782 (antibody, human IgG1, kappa, L234A L235A)
heavy 1: QVQLVESGGGVVQPGRSLRLDCKASGITFSNSGMHWVRQAPGKGLEWVAVIWYDGSKRYYADSVKGRFTISRDNSKNTLFLQMSSLRAEDTAVYYCATNDDYWGQGTLVTVSSASTKGPSVFPLAPSSKSTSGGTAALGCLVKDYFPEPVTVSWNSGALTSGVHTFPAVLQSSGLYSLSSVVTVPSSSLGTQTYICNVNHKPSNTKVDKKVEPKSCDKTHTCPPCPAPEAAGGPSVFLFPPKPKDTLMISRTPEVTCVVVDVSHEDPEVKFNWYVDGVEVHNAKTKPREEQYNSTYRVVSVLTVLHQDWLNGKEYKCKVSNKALPAPIEKTISKAKGQPREPQVYTLPPSREEMTKNQVSLSCAVKGFYPSDIAVEWESNGQPENNYKTTPPVLDSDGSFFLVSKLTVDKSRWQQGNVFSCSVMHEALHNRFTQKSLSLSPGK
heavy 2: QVQLVESGGGVVQPGRSLRLDCKASGITFSNSGMHWVRQAPGKGLEWVAVIWYDGSKRYYADSVKGRFTISRDNSKNTLFLQMSSLRAEDTAVYYCATNDDYWGQGTLVTVSSASTKGPSVFPLAPSSKSTSGGTAALGCLVKDYFPEPVTVSWNSGALTSGVHTFPAVLQSSGLYSLSSVVTVPSSSLGTQTYICNVNHKPSNTKVDKKVEPKSCDKTHTCPPCPAPEAAGGPSVFLFPPKPKDTLMISRTPEVTCVVVDVSHEDPEVKFNWYVDGVEVHNAKTKPREEQYNSTYRVVSVLTVLHQDWLNGKEYKCKVSNKALPAPIEKTISKAKGQPREPQVYTLPPSREEMTKNQVSLWCLVKGFYPSDIAVEWESNGQPENNYKTTPPVLDSDGSFFLYSKLTVDKSRWQQGNVFSCSVMHEALHNHYTQKSLSLSPGGGGGSGGGGSGGGGSGGGGSAAEPVEDNSINFVAMKFIDNTLYFIAENDENGGGSYFGKLESKLSVIRNLNDQVLFIDQGNRPLFEDMTDSDSRDNAPRTIFIISKYGDSQPRGLAVTISVKSEKISTLSSENKIISFKEMNPPDNIKDTKSDIIFFQRSVPGHDNKVQFESSSYEGYFLASEKERDLFKLILKKEDELGDRSIMFTVQNED
light: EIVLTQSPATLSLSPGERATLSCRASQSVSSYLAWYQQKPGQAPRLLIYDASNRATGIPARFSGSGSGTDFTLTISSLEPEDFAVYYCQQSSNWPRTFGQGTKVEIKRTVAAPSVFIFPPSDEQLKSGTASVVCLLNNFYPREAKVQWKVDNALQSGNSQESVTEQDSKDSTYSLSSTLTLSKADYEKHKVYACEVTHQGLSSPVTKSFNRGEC
Question: For B1, which “IL18 biological activity on HEK Blue IL18 (trans activity only), attenuation relative to recombinant human IL18” value [1] is on record?
Answer: > 100000 fold

Question: And the “SEAP release of PD-1 decorated HEK Blue IL18 (cis activity), increase relative to non targeted FUSE827” value [1]?
Answer: ~100 fold

Question: And the “SEAP release, PD-1 decorated HEK Blue IL-18 against non-decorated HEK Blue IL18” value [1]?
Answer: ~100 fold

B2: FUSE-783 (antibody, human IgG1, kappa, L234A L235A)
heavy 1: B1 heavy 1
heavy 2: B1 heavy 2 with S471V, S535V, S565V, S573V, S624V
light: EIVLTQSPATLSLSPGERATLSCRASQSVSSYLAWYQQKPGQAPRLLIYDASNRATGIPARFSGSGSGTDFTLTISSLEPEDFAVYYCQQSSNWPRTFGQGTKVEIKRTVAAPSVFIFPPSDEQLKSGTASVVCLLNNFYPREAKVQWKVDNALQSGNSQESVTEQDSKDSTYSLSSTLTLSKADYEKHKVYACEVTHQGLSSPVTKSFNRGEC
Question: Which “IL18 biological activity on HEK Blue IL18 (trans activity only), attenuation relative to recombinant human IL18” value [1] does the source give for B2 here?
Answer: ~1000 fold

Question: What about the “SEAP release of PD-1 decorated HEK Blue IL18 (cis activity), increase relative to non targeted FUSE775” value [1] of the same binder?
Answer: ~30 fold

Question: What about the “SEAP release, PD-1 decorated HEK Blue IL-18 against non-decorated HEK Blue IL18” value [1] of the same binder?
Answer: ~30 fold

B3: IL-18AV released from FUSE-442 by enterokinase (ligand)
chain: YFGKLESKLSVIRNLNDQVLFIDQGNRPLFEDMTDSDVRDNAPRTIFIISMYKDSQPRGMAVTISVKVEKISTLSVENKIISFKEMNPPDNIKDTKSDIIFFQRSVPGHDNKMQFESSSYEGYFLAVEKERDLFKLILKKEDELGDRSIMFTVQNED
Question: What does the source list for B3?
Answer: EC50-SEAP, HEK-Blue IL-18 reporter cells, EK-cleaved FUSE-442 titrated in medium alone (row 'FUSE442 + EK') [2]: 0.0186 ng/mL; EC50-SEAP, HEK-Blue IL-18 reporter cells, EK-cleaved FUSE-442 titrated in medium with 1.25 µg/ml rhIL-18BP (row 'FUSE442 + EK +BP') [3]: 0.211 ng/mL

B4: IL-18mut2AV released from FUSE-424 by enterokinase (ligand)
chain: B3 chain with M51K, K53G, M60L, M113V
Question: For B4, which “EC50-SEAP, HEK-Blue IL-18 reporter cells, EK-cleaved FUSE-424 titrated in medium alone (table G beside graph F 'EK-FUSE424'; the table row itself is labelled 'FUSE442 + EK')” value [4] is on record?
Answer: 0.0034 ng/mL

Source: patent US20260274968A1 (FUSE BIOTHERAPEUTICS, published 2026)
